Measured values: the supplement of paper PMC10567573

B1: ZNF511 (parent)
chain: EPLPVERDPAAGAAPFRFVARPVR
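Also: lentivirally expressed fusions sorted by FACS into six bins by GFP to DsRed ratio, PSI derived from sequencing read proportions per bin multiplied by bin number.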

Variants of: B1
Assay: protein stability index of a GFP-peptide fusion (GPS, HEK-293T) (PSI 1-6); higher = more stable
Conditions: c terminus: a fixed tail appended
EPLPVERDPSAGAAPFRFVARPVR gave a protein stability index of 2.23.
EPLPVERDPVAGAAPFRFVARPVR showed a protein stability index of 1.38.
EPLPVERDPWAGAAPFRFVARPVR showed a protein stability index of 1.43.
In the case of EPLPVERDPYAGAAPFRFVARPVR, the protein stability index is reported as 2.97.
EPLPVERDPTAGAAPFRFVARPVR gave a protein stability index of 2.15.
For EPLPVERDPAAGQAPFRFVARPVR, the protein stability index was 2.6.
Work on EPLPVERDPAAGWAPFRFVARPVR yielded a protein stability index of 1.77.
EPLPVERDPAAGFAPFRFVARPVR gave a protein stability index of 1.94.
EPLPVERDPAAGGAPFRFVARPVR showed a protein stability index of 2.48.
Work on EPLPVERDPAAGNAPFRFVARPVR yielded a protein stability index of 2.58.
For EPLPVERDPAAGCAPFRFVARPVR, the protein stability index was 2.
EPLPVERDPAAGTAPFRFVARPVR showed a protein stability index of 2.5.
In the case of EPLPVERDPAAGPAPFRFVARPVR, the protein stability index is reported as 2.37.
Work on EPLPVERDPAAGSAPFRFVARPVR yielded a protein stability index of 3.04.
Variant EPLPVERDPAAGIAPFRFVARPVR has a protein stability index of 1.66.
Variant EPLPVERDPAAGEAPFRFVARPVR has a protein stability index of 2.62.
Work on EPLPVERDPAAGDAPFRFVARPVR yielded a protein stability index of 3.26.
With EPLPVERDPAAGYAPFRFVARPVR the protein stability index was 2.02.
Work on EPLPVERDPAAGMAPFRFVARPVR yielded a protein stability index of 3.42.
EPLPVERDPAAGHAPFRFVARPVR gave a protein stability index of 2.43.
EPLPVERDPAAGKAPFRFVARPVR gave a protein stability index of 2.71.
Variant EPLPVERDPAAGRAPFRFVARPVR has a protein stability index of 2.34.
For EPLPVERDPAAFAAPFRFVARPVR, the protein stability index was 2.01.
In the case of EPLPVERDPAAEAAPFRFVARPVR, the protein stability index is reported as 2.09.
Work on EPLPVERDPAAPAAPFRFVARPVR yielded a protein stability index of 1.76.
EPLPVERDPAAHAAPFRFVARPVR showed a protein stability index of 2.64.
Work on EPLPVERDPAACAAPFRFVARPVR yielded a protein stability index of 2.79.
In the case of EPLPVERDPAAYAAPFRFVARPVR, the protein stability index is reported as 1.96.
EPLPVERDPAAWAAPFRFVARPVR gave a protein stability index of 1.67.
Work on EPLPVERDPAASAAPFRFVARPVR yielded a protein stability index of 2.02.
With EPLPVERDPAAIAAPFRFVARPVR the protein stability index was 1.46.
For EPLPVERDPAANAAPFRFVARPVR, the protein stability index was 2.27.
For EPLPVERDPAAVAAPFRFVARPVR, the protein stability index was 1.92.
Work on EPLPVERDPAALAAPFRFVARPVR yielded a protein stability index of 2.4.
EPLPVERDPAAKAAPFRFVARPVR showed a protein stability index of 2.52.
In the case of EPLPVERDPAAQAAPFRFVARPVR, the protein stability index is reported as 2.55.
Work on EPLPVERDPAARAAPFRFVARPVR yielded a protein stability index of 2.33.
With EPLPVERDPAATAAPFRFVARPVR the protein stability index was 1.64.
For EPLPVERDPAAMAAPFRFVARPVR, the protein stability index was 2.38.
Variant EPLPVERDPAADAAPFRFVARPVR has a protein stability index of 2.65.
With EPLPVERDPAAAAAPFRFVARPVR the protein stability index was 2.06.
EPLPVERDPAVGAAPFRFVARPVR gave a protein stability index of 1.42.
For EPLPVERDPAGGAAPFRFVARPVR, the protein stability index was 1.83.
Variant EPLPVERDPAFGAAPFRFVARPVR has a protein stability index of 2.02.
Work on EPLPVERDPADGAAPFRFVARPVR yielded a protein stability index of 2.33.
With EPLPVERDPACGAAPFRFVARPVR the protein stability index was 2.18.
EPLPVERDPARGAAPFRFVARPVR gave a protein stability index of 1.78.
Work on EPLPVERDPAKGAAPFRFVARPVR yielded a protein stability index of 2.34.
EPLPVERDPAYGAAPFRFVARPVR gave a protein stability index of 1.88.
Work on EPLPVERDPASGAAPFRFVARPVR yielded a protein stability index of 2.43.
EPLPVERDPALGAAPFRFVARPVR gave a protein stability index of 1.86.
EPLPVERDPAWGAAPFRFVARPVR showed a protein stability index of 1.98.
For EPLPVERDPAQGAAPFRFVARPVR, the protein stability index was 2.12.
With EPLPVERDPAPGAAPFRFVARPVR the protein stability index was 2.68.
EPLPVERDPAIGAAPFRFVARPVR gave a protein stability index of 3.02.
For EPLPVERDPATGAAPFRFVARPVR, the protein stability index was 2.08.
In the case of EPLPVERDPAHGAAPFRFVARPVR, the protein stability index is reported as 2.61.
EPLPVERDPANGAAPFRFVARPVR showed a protein stability index of 1.75.
Work on EPLPVERDPAMGAAPFRFVARPVR yielded a protein stability index of 1.71.
Variant EPLPVERDPAEGAAPFRFVARPVR has a protein stability index of 3.
EPLPVERDPAAGACPFRFVARPVR showed a protein stability index of 2.2.
Work on EPLPVERDPAAGATPFRFVARPVR yielded a protein stability index of 2.29.
With EPLPVERDPAAGAIPFRFVARPVR the protein stability index was 1.31.
EPLPVERDPAAGAWPFRFVARPVR gave a protein stability index of 2.47.
In the case of EPLPVERDPAAGALPFRFVARPVR, the protein stability index is reported as 2.44.
With EPLPVERDPAAGAVPFRFVARPVR the protein stability index was 1.51.
Variant EPLPVERDPAAGAGPFRFVARPVR has a protein stability index of 2.55.
For EPLPVERDPAAGAMPFRFVARPVR, the protein stability index was 2.42.
EPLPVERDPAAGADPFRFVARPVR gave a protein stability index of 4.71.
Variant EPLPVERDPAAGAPPFRFVARPVR has a protein stability index of 2.52.
EPLPVERDPAAGAKPFRFVARPVR gave a protein stability index of 3.16.
For EPLPVERDPAAGANPFRFVARPVR, the protein stability index was 2.69.
With EPLPVERDPAAGAQPFRFVARPVR the protein stability index was 2.91.
EPLPVERDPAAGAEPFRFVARPVR gave a protein stability index of 4.11.
With EPLPVERDPAAGAHPFRFVARPVR the protein stability index was 2.53.
EPLPVERDPAAGAYPFRFVARPVR showed a protein stability index of 1.96.
For EPLPVERDPAAGARPFRFVARPVR, the protein stability index was 2.68.
For EPLPVERDPAAGASPFRFVARPVR, the protein stability index was 3.27.
Work on EPLPVERDPAAGAAFFRFVARPVR yielded a protein stability index of 3.23.
EPLPVERDPAAGAACFRFVARPVR gave a protein stability index of 3.77.
Variant EPLPVERDPAAGAADFRFVARPVR has a protein stability index of 4.21.
Variant EPLPVERDPAAGAARFRFVARPVR has a protein stability index of 3.78.
Work on EPLPVERDPAAGAANFRFVARPVR yielded a protein stability index of 3.64.
With EPLPVERDPAAGAAKFRFVARPVR the protein stability index was 4.09.
EPLPVERDPAAGAASFRFVARPVR showed a protein stability index of 4.09.
In the case of EPLPVERDPAAGAAIFRFVARPVR, the protein stability index is reported as 3.22.
Variant EPLPVERDPAAGAAAFRFVARPVR has a protein stability index of 3.76.
EPLPVERDPAAGAALFRFVARPVR showed a protein stability index of 3.68.
For EPLPVERDPAAGAAMFRFVARPVR, the protein stability index was 3.73.
For EPLPVERDPAAGAAHFRFVARPVR, the protein stability index was 4.05.
EPLPVERDPAAGAATFRFVARPVR gave a protein stability index of 3.94.
In the case of EPLPVERDPAAGAAQFRFVARPVR, the protein stability index is reported as 3.78.
EPLPVERDPAAGAAEFRFVARPVR gave a protein stability index of 3.04.
EPLPVERDPAAGAAGFRFVARPVR showed a protein stability index of 3.84.
